Test results published in the domain aggregation screens of Martell et al. (2025).

Assay: soluble fraction after stress (log2 fold change); higher = more stays soluble; pooled small domains, quantitative proteomics
Conditions: stress: 75 degC
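Note: 20 min heating vs room temperature control held 20 min.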

Sequence | soluble fraction (log2)
HMLSFSEAERAVLSLLNRRPDLSAKALASELAVSARTVERYLQSLQQKGKLLRVGAKKGGYWQV | -0.842
HMLSGNLTADAHVHRGLQALSDGRNEDALVDFTKATEVQADFAEAWNKRATVNYLLGRYDAAVLDIQKTLE | 0.257
HMLSLDDAAFERYDLTMREREVLLLLLNRLTYEEIAERLFISTNTVKTHVGNVYKKTGVSSRKELVSK | -1.26
HMLSLGQQIRNHVLSRIESGEWPEGSRIPSEAKLVELLGASRMTIHIALRDLSAEGVLLRKQGAGTFVAPR | -2.68
HMLSRKEVFTVSQKDIEKNPIGAADKFFDGHVGIHKLLVVDEEDRLRGLFTLSDIERINDEQ | 0.179
HMLSRTYDSSGPDVKIRGTAQTVADKYMSLARDAQSSGDRVMAENYLQHAEHYNRIIAAAQAQ | 0.34
HMLSSEQQQKLDSLSRKELEVAELVSHGATNKMIARTMNITERTVKAHLTAIFQKMNIPDRLSLAIFFRDL | -2.79
HMLSSNEIKEIFALFDKSNRGQVATSELGTLVRALNLNPTETEITDMQSKVDPKGQGSFTLDVLEKVVQD | 0.394
HMLSVNREQVEQSLKQEWGFDYDKNLRAAQRAIDVYGDDDLKLLLNGPTGNDPAIVKLFARLGGEVTEE | 0.132
HMLSYIELTVDNTSKASYIMTDKMKINNFKIIGNNTIRVYENKVSPQDISRTLSMNNVSIEALGRKS | -1.29
HMLSYNINEESKSSIMNVNVLKNNFASIDVEKLQNIIFTTFKKYNYYLNDFSSMNLLLHLLIIVDREL | 0.418
HMLTEKEEEVMQILWDNGPLFVREILEFYPDPKPHYNTVSTVIRVLEEKNFASHKAYGNTYQYFP | 0.315
HMLTLEDMTRINSIISPRIKKGQSLYHIAKNNGDELNISESTLRRLVMTGEMDAGIIDLPQAVK | -0.00636
HMLTLTNREKQVLVYIAKGHQVAQIAYELKLSGHTINGYIKTIYQKLHISSRAEAALLAQQYGL | -3.31
HMLTRQNFHGIKLPTIHEYIDLLNSRVNANIDKTNNWQSSVSHLRTYLNSHNINAVSKESINNYIDERLN | -1.4
HMLTRRQSEVLDFIRQFAESESMPPTLHEIAKGMGFSSDNAARDHVRALARKGAIDLVGGTSRGIRLR | -1.22
HMLTRSASREELDQLLKRLRQNLKQKNFFWPPDKEKSLVLYLENLFSKFPLNSSDIRFLHGIIRTLSEK | -0.188
HMLVGKSVIMKTNESSSGMIAGKVNYWENIDGKIYLGINGKLYDIADVDTVLDNDYYDKLVN | -0.516
HMLVKKYTEEETGRQAELSKQLAELSKAYYNTGNSMVDDAVFDKLRDELSSLEKESGFAYDISPNVS | -0.69
HMLVNNSTIETVIDFANVKFGMELTKDQVSEQLRNLSFSQTLKLINSMKADDNDAFSEIIDL | -0.593
HMLVSFGDHLKRYIYERAGIEEPFGEVPQEIYRDIAVDSFRETYTPKSMNPTSTKLPALVNNWLIQ | -0.843
HMLVSVSNYLGQNVDTVKSDLEALGLVVKLKEQQTDRESENGAVLEQSIEGGSKVSAGTPITLTYGK | 0.945
HMLWTHIALPVRSLDDTMAFYDKYTTLENIHERQDPETNMRSVWLANPGDKTEQAARFVLVLI | -0.119
HMMTDAEKTFIFFSHLSSVEDHIAYGDKQFYMSLFWQHENKRELSSSQLYHLERLYNKYSMEEIEKKEEFS | -1.35
HMMTDEEFLRIAGYMKQRYGIDLGQKKVIMNGRLENHIKSGGWSSFHAFMNDLEKDSSGKLEKELVNLLTT | -0.239
HMMTLEESYKLLQVSHNASDIEITKAFKKLALLYHPDKNPSNIDWANKAMASINVAYNTIITHRFKEK | -1.38
HMNAAYDEELDFIFSLSEKGKWEEAEAEIGLLLQKHPEDATLQRIGEWVTTQKILLRQQAVEDRIRS | -0.375
HMNAEWMFDARKIPGLVMNYLRRIAVRAIEEKHYSPELVADLFGIDRTSIYDWLRKYRQQGEEALDTRKA | -1.28

Sequence | soluble fraction (log2)
HMNAFEIYPNPASNLIRIDAEFTVAKIFSQTGNLIQTSTTKEIDVYNLANGIYFVKLDDSPSMVKFVIN | -0.795
HMNALTEAESKLLERMNKAGIHAEITTKKAAGILQRSENGARTVLNSLVKKGYLTVETNKAPYIYHLH | -0.359
HMNAMFEKVLAAVMGFIGVSAFAKNADGKSEMTSDQEKRLTDKWGSKFVEEFKNDLLEYEKNGNAAEDAV | -0.944
HMNAPKKPLSAYFLFSQEERLKVKAENPDYSITEVAKELGKRWATLNPDIKTVYEQRYQDARRIYETEMNT | -0.372
HMNAQLTTIPDLDGMNMRAATAMLSSLGLEVKRIGSGTVFAQFPKAGAAMRPGSMVTIRGKAKSL | -0.777
HMNATLSSSYPTSVVTDGEIYKLTFGLNGKYNGQEQITVKPHGDSNIYDSGGLRAYQNTQSNNVVTLN | -0.0686
HMNATQLSNTQKQIRTQLLERLSNNPLTVKQLADRMFVPIDTILKEITALIQEQKIIEDKGGKLQIN | -0.135
HMNAVDLLSPQEQRIFELIGEGMSNRQIADVMYLAEKTVKNYVSNVLMKLGMERRTEAAALAARLDERQK | -0.179
HMNAVITTQKAKQIALAHAGLSEADVNYVKAELENDDGVQVYDIEFYSKNIEYDYDINAVTGEIMSFDHDI | -0.251
HMNAVYPNPFVSEIYIGENNRSVEIYNLNGGLVYGMSQPSSRIDVSGLAAGSYILIKKDSSGHISSHKIMK | -1.63
HMNDAARQTTDILQHVRSSGSISFRDLWRLFMPFMAYRDFDAAVKSLVAAGHIATTENERKELHLIAF | -1.14
HMNDEFYAVVRESYAGYALVKPLDEDVGYDILSVSVKNLKVGDIIRLKVKNIKEIYPPEAEVLEVEVLQ | -0.316
HMNDEQFAIAKNDLLLSLYDGKEVNNSAAEYIIAWESLEKSPSDYISSQLKNTAESIIKISFD | 0.258
HMNDFVTVPDLQGIFYSEAIKKIDKMGLKEGSIQFVNQDKFLPNTVLNQNPKEGTKVSQDSPINLIIS | -0.012
HMNDILETISNQIRDLRVSKKITQQELAERTNLSVPYISQIENGHRNISLETFIKIVDALDIPLSDFFLP | -1.95
HMNDITVNVEDSKLIVTSNNPEKLPLYIMDIQGHILDKSEITAGTYSFPISDRGTYIVRIGENVYKVI | -0.166
HMNDLKVGELAKRGNVTAETVRHYTREGLLSPTRHPDNGYQLFSATDLERLHFIQRARKLGFSVAEIRDIL | -0.915
HMNDLVTWDRYKIELGDTLSEIAQKLVTRVDILKTVNQIQGTRIIAGNSLMVPRTTDTNVLTYL | 0.00348
HMNDPIGDMLTRIRNAQMRGKSTVSTPASKLRAWVLEVLASEGYIRGFERATTDNGQGELVISLD | -0.682
HMNDREAAYEDLPDELVRVGQKVFIKSLETEGVIVQPPNKKGEVRVRSGNISTNVKRSDLGLPIEKP | 0.0745
HMNDRRQDVFELLKSSERPVSAADLAHKFGVTRQVIVADIALLRASDIDIVSTNRGYILKANL | -1.83
HMNDYNLTDREKEVLTFLFQGLEYKEIGMKMSVSPNTIRNHISNIYKKLHVTSKTQAIRVFLNN | -4.09
HMNEAMIMIDLKGKSRDEAVKELDELNLKYRFTGNGIVKDQKPKAGEEINSDTVVEVELSEIK | 0.12
HMNEDYFTIAGYASLRGVNIDTSKANMLGRKATKLSREYGYDIGKVTDTRFGKVNSYHLDILKSIFEF | -0.575
HMNEFSYLSELGSEKGDLIKGLQLVQSREGYVSDDAIRAISKHFSIAEAEVEGVLTFYAQFK | -1.28
HMNEIESFSNTKNPFSLTFKTSKDSSYKVEASSNLKKWTTLSQIKGTGNPITFTESRRILFRKQYYRVTLS | -0.176
HMNEISFYPNPAKESLTVKGLSEITSYSISDINGKLIQYGTTFDRINLEKLTKGFYFLTIGNTISKKLIV | -0.311
